Measured values reported in US5637682, “High-affinity oligonucleotide ligands to the tachykinin substance P” (NeXstar Pharmaceuticals, Inc.).
Like-named read-outs stand apart in the source and are kept apart here.

T1: Substance P (SP) (UniProt P20366)
T1 sequence: RPKPQQFFGLM

T2: Substance P (SP) (UniProt P20366)
T2 chain: RPKPQQFFGLM

T3: Reverse-orientation substance P (rSP)
T3 chain: CMLGFFQQPKPR

T4: Substance P fragment 2-11
T4 chain: PKPQQFFGLM

B1: Ligand B32 (class 3) (ssRNA)
RNA: GGGAGCUCAGAAUAAACGCUCAAAAAGGCACUGACCACCCUCAGGAAGAAUAACCGCGGUCACCCGCAUCCGAGUCUAUCAAUUUCGACAUGAGGCCCGGAUCCGGC
B2: Ligand B23 (class 3) (ssRNA)
RNA: GGGAGCUCAGAAUAAACGCUCAAGCUCAAGGCAGAAACAGGACACACCAAGACGAGUUAACCAGCCCAGCUUGACCAUACAUUCGACAUGAGGCCCGGAUCCGGC
B3: Experiment B class 2 ligand (SEQ 51) (ssRNA)
RNA: GGGAGCUCAGAAUAAACGCUCAAGAACAGGACACCUGGUUCUCAGGACGAGUUUACUAGGGCGGCAAAAAGGGCUCUCGUGGGUUCGACAUGAGGCCCGGAUCCGGC
B4: Ligand B22 (class 3) (ssRNA)
RNA: GGGAGCUCAGAAUAAACGCUCAAAAGGUAAGAAACAGGACACGCACUUAAACAGACGAGUUAACCAUACCUAGAUCGCGGAAUUCGACAUGAGGCCCGGAUCCGGC
B5: Experiment B class 2 ligand (SEQ 53) (ssRNA)
RNA: GGGAGCUCAGAAUAAACGCUCAAAAACAGGACACCAUGAAAAUGGACGAGUUCACUAGAGCGUUGAGCUGUGCGCCCGUGGAUUCGACAUGAGGCCCGGAUCCGGC
B6: Experiment B class 2 ligand (SEQ 55) (ssRNA)
RNA: GGGAGCUCAGAAUAAACGCUCAAAACAGGACACCUUGAAUAAAGGACGAGUUUACUGUGCGUUUAGUAGAGAACCCGGGAUUCGACAUGAGGCCCGGAUCCGGC
B7: Experiment B class 2 ligand (SEQ 54) (ssRNA)
RNA: GGGAGCUCAGAAUAAACGCUCAAAAACAGGACACCAAGAUUAUUGGACGAGUUUACUAGGGCGAUUAAUGGGCUCGCGAUGAUUCGACAUGAGGCCCGGAUCCGGC
B8: Ligand A13 (ssRNA)
RNA: GGGAGCUCAGAAUAAACGCUCAAGGGCAACGCGGGCACCCCGACAGGUGCAAAAACGCACCGACGCCCGGCCGAAGAAGGGGAUUCGACAUGAGGCCCGGAUCCGGC
B9: Ligand B28 (ssRNA)
RNA: GGGAGCUCAGAAUAAACGCUCAACUUCCAAGGCAGUGGAAACCCUAAGGUCAAUAAUGACCAAUGACGCCGCUCCGGUUCAACCUUCGACAUGAGGCCCGGAUCCGGC
B10: Experiment B class 2 ligand (SEQ 49) (ssRNA)
RNA: GGGAGCUCAGAAUAAACGCUCAAUAACAGGACACCAUGAUUAAUGGACGAGUUCACUAGGGCGGUUAAAAGAGCUCUCGAGGAUUCGACAUGAGGCCCGGAUCCGGC
B11: Experiment B class 2 ligand (SEQ 52) (ssRNA)
RNA: GGGAGCUCAGAAUAAACGCUCAAAAACAGGACACCAAUUUUAUUGGACGAGUUUACUAGGGCGGUAUUAUGGGCUCGCGAGGAUUCGACAUGAGGCCCGGAUCCGGC
B12: Experiment B class 2 ligand (SEQ 50) (ssRNA)
RNA: GGGAGCUCAGAAUAAACGCUCAAGAACAGGACACCAAGAUAAUUGGACGAGUUUACUAGGGCGGCUAUGCUGGCUCUCGAGGAUUCGACAUGAGGCCCGGAUCCGGC
B13: Experiment B class 2 ligand (SEQ 48) (ssRNA)
RNA: GGGAGCUCAGAAUAAACGCUCAAAAAACAGGACACCAUGAUAAAUGGACGAGUUCACUGGAGCGUCUAAAAGGGCACCCUUGGAUUCGACAUGAGGCCCGGAUCCGGC

Tests used:
[1] = biological target: T1, Substance P (SP); conditions: equilibrium dialysis rough estimate, 20 uM RNA, fraction bound 0.017
[2] = biological target: T2, Substance P (SP); experiment: single-point equilibrium dialysis; exception to the >2 uM statement, exact value only in figure; conditions: protein: synthetic; tags: free synthetic peptide, C-terminal amide, Sigma (3H-SP from NEN as tracer)
Procedure: (§1) Binding reactions consisted of 20 nM ^3H-SP (P_o) and either 0.2 µM RNA (a) or 1.0 µM RNA (b). ND=not determined.
(§2) Equilibrium dialysis. Equilibrium dialysis experiments were performed with a Spectra/Por® (Spectrum; Houston, Tex.) equilibrium dialyzer, Spectra/Por® (Spectrum; Houston, Tex.) microcell dialysis chambers (200-μl chamber volumes), and 12000–14000 MWCO dialysis membranes (Spectrum; Houston, Tex.). These membranes allow passage of SP but not 107-nt RNAs. Sample volumes were 200 μl on each side of the membrane (i.e., 200 μl per chamber). All experiments were at room temperature in 1X SP binding buffer. RNAs (unlabeled) were denatured prior to re-equilibration in binding buffer as described above for Experiment B. For binding curves (FIG. 4), RNA concentrations between 50 nM and 20 μM were utilized. […] For binding competition experiments (FIGS. 6 and 7), equal concentrations of the competing peptide were applied to each side of the membrane at the start of dialysis. The dialysis cells were rotated at 10 rpm to shorten the time required to reach equilibrium. […] Following equilibration, samples were withdrawn from the dialysis chambers, added to scintillation fluid, and counted.

[3] = biological target: T2, Substance P (SP); experiment: single-point equilibrium dialysis; conditions: protein: synthetic; tags: free synthetic peptide, C-terminal amide, Sigma (3H-SP from NEN as tracer)
Procedure: as §1, §2

[4] = biological target: T2, Substance P (SP); experiment: single-point equilibrium dialysis; stated for all class 2; conditions: protein: synthetic; tags: free synthetic peptide, C-terminal amide, Sigma (3H-SP from NEN as tracer)
Procedure: as §1, §2

[5] = biological target: T2, Substance P (SP); experiment: equilibrium dialysis, five-point curve; earlier estimate 14 uM; SP binding buffer, room temp; conditions: protein: synthetic; tags: free synthetic peptide, C-terminal amide, Sigma (3H-SP from NEN as tracer)
Procedure: as §2

[6] = biological target: T2, Substance P (SP); experiment: equilibrium dialysis, five-point curve; single-point screen gave 170 nM; 10 mM HEPES pH 7.0, 150 mM NaCl, 5 mM KCl, 5 mM CaCl2, room temp; conditions: protein: synthetic; tags: free synthetic peptide, C-terminal amide, Sigma (3H-SP from NEN as tracer)
Procedure: as §2

[7] = biological target: T3, Reverse-orientation substance P (rSP); experiment: competition; poor competitor of 3H-SP up to 100 uM; 1.6 uM RNA, 1.6 uM SP; conditions: protein: synthetic; tags: synthetic peptide
Procedure: as §2, with “These” for “Equilibrium dialysis. Equilibrium dialysis experiments were performed with a Spectra/Por® (Spectrum; Houston, Tex.) equilibrium dialyzer, Spectra/Por® (Spectrum; Houston, Tex.) microcell dialysis chambers (200-μl chamber volumes), and 12000–14000 MWCO dialysis membranes (Spectrum; Houston, Tex.). These”

[8] = biological target: T4, Substance P fragment 2-11; experiment: competition; unable to compete at 32 uM (20-fold excess over SP); conditions: protein: synthetic; tags: synthetic peptide, Sigma
Procedure: as §2

| Molecule | Kd [4] [µM] | also measured |
| --- | --- | --- |
| GGGAGCUCAGAAUAAACGCUCAANNNNNNNNNNNNNNNNNNNNNNNNNNNNNNNNNNNNNNNNNNNNNNNNNNNNNNNNNNNNUUCGACAUGAGGCCCGGAUCCGGC [Unselected random 60N RNA pool] |  | Kd [1]: 1200 µM |
| B1 |  | Kd [2]: < 2 µM |
| B2 |  | Kd [3]: > 2 µM |
| B3 | > 2 |  |
| B4 |  | Kd [3]: > 2 µM |
| B5 | > 2 |  |
| B6 | > 2 |  |
| B7 | > 2 |  |
| B8 |  | Kd [5]: 5.8 µM |
| B9 |  | Kd [6]: 0.19 µM; binding result [7]: no binding; binding result [8]: no binding |
| B10 | > 2 |  |
| B11 | > 2 |  |
| B12 | > 2 |  |
| B13 | > 2 |  |
